Bridges are numbered along the chain shown (N, C = ends). code n = not defined here
Assays:
[1] = target: T1, rat albumin (rat, UniProt P02770 25-608); assay: SA08b binding assay: competition with biotinylated SA08b for immobilized albumin
Protocol: (§1) Plates were blocked using Blocker Casein (Pierce Chemical, Rockford, Ill.) for 1 hr, at 25° C. […] The amount of HRP bound was measured using ABTS/H₂O₂ substrate and monitoring the change at 405 nm.

[2] = target: T2, rabbit albumin (rabbit, UniProt P49065 25-608); assay: as above
T2 sequence (P49065 25-608 limits assumed): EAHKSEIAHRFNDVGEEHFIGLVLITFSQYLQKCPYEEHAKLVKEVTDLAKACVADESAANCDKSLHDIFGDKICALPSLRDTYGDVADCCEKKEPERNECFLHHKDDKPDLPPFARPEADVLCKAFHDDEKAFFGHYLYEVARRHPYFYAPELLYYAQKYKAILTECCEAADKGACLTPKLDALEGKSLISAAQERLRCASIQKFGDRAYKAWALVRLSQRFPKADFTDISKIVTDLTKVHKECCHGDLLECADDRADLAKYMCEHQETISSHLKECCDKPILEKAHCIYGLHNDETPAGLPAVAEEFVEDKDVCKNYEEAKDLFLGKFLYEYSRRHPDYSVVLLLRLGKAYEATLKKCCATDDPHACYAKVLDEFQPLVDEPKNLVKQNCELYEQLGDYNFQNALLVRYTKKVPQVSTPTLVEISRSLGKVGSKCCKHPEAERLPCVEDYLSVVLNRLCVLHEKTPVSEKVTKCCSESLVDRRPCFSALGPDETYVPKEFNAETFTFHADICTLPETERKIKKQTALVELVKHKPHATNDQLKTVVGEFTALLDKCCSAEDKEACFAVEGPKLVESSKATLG
Protocol: as §1

[3] = target: T3, mouse albumin (mouse, UniProt P07724 25-608); assay: as above
T3 sequence (P07724 25-608 limits assumed): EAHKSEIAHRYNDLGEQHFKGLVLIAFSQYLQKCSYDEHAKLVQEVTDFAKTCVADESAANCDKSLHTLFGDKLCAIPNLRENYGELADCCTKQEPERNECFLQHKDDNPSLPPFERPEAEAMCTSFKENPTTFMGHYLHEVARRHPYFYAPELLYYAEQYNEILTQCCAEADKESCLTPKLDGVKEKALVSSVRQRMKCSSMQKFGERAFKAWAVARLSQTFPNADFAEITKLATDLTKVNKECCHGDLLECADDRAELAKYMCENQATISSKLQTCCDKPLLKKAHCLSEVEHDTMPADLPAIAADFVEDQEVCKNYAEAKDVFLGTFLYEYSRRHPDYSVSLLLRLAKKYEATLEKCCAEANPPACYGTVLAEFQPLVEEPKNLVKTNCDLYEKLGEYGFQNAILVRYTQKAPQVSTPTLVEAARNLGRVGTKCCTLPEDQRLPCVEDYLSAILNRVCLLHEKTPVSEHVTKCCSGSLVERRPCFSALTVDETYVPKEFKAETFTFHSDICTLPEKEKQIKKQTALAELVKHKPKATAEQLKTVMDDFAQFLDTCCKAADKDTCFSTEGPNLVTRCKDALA
Protocol: as §1

[4] = target: T4, albumin (species not stated, D3H44 fusion assays); assay: SA08b competition binding assay (competitor: biotinylated SA08b), albumin species not given
T4 construct: also called immobilized albumin
T4 sequence (P49065 25-608): as the sequence (P49065 25-608 limits assumed) above
Protocol: as §1

[5] = target: T1, rat albumin; assay: phage ELISA, photograph of the plate
[6] = target: T2, rabbit albumin; assay: phage ELISA, photograph of the plate
[7] = target: T3, mouse albumin; assay: phage ELISA, photograph of the plate
[8] = target: T5, ovalbumin (UniProt P01012 2-386); assay: phage ELISA, photograph of the plate
T5 sequence (looked up): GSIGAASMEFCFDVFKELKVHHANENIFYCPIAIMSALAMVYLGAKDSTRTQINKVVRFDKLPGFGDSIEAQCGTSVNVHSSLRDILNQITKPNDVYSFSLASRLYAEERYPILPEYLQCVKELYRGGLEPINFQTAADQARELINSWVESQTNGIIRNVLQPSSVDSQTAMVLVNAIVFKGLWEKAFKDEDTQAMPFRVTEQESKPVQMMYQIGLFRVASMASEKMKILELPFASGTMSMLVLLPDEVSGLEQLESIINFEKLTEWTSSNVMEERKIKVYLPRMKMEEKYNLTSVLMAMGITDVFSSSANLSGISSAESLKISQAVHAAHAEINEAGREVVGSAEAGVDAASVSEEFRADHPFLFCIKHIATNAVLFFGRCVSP

[9] = target: T6, IgG-Fc (UniProt P01857-1 108-330 = IgG part, limits assumed); assay: synthetic peptide; method of the Kd not named
T6 construct: domain: IgG-Fc; also called biotinylated-IgG-Fc; biotin-IgG-Fc

[10] = target: T6, IgG-Fc; assay: synthetic peptide; competition assay not given

T1 sequence (P02770 25-608 limits assumed): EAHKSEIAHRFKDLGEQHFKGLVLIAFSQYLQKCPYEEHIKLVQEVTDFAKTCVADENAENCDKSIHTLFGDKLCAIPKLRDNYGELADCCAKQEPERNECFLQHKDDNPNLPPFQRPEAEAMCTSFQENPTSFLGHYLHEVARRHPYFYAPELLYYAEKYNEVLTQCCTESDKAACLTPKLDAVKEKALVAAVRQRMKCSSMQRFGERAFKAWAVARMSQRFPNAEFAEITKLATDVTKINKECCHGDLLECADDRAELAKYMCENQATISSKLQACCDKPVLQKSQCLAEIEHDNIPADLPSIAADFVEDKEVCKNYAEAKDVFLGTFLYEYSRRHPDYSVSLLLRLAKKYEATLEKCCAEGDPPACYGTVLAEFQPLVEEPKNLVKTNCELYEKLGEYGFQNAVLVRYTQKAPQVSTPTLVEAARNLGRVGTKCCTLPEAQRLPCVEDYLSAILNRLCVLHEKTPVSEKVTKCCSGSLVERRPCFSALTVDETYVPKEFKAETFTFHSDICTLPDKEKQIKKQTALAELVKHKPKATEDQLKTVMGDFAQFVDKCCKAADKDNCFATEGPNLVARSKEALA

B1: SA08 (peptide)
peptide: Ac-QGLIGDICLPRWGCLWGDSVK-{code n}
modifications: disulfide 8-14 (inferred); reading uncertain; also: printed as Gln-Gly-Leu-Ile-Gly-Asp-Ile-Cys-Leu-Pro-Arg-Trp-Gly-Cys-Leu-Trp-Gly-Asp-Ser-Val-Lys
notes: synthesized peptide; not biotinylated form of SA08b; also called SA08 peptide
Q: With B1 as the binder, how does the IC50 [1] read?
A: The IC50 was 68 nM.

Q: What about the IC50 [2] of the same binder?
A: Its IC50 is 63 nM.

Q: And the IC50 [3]?
A: Its IC50 is 10 nM.

Q: And the “IC50 (read off the curve)” value [4]?
A: Its value is roughly 10 nM.

Q: Does EVRSFCTDWPAHYSCTSLQG (phage clone, Library HA) [HA-H74] bind [5]?
A: Result: no binding

Q: Does EVRSFCTDWPAHYSCTSLQG (phage clone, Library HA) [HA-H74] bind [6]?
A: Result: no binding

Q: Does EVRSFCTDWPAHYSCTSLQG (phage clone, Library HA) [HA-H74] bind [7]?
A: Result: no binding

Q: Does EVRSFCTDWPAHYSCTSLQG (phage clone, Library HA) [HA-H74] bind [8]?
A: Result: no binding

Q: How did the Kd [9] turn out when H-DLADCSWHMGELVWCSRVEG-NH2 (disulfide 5-15 (inferred), Synthetic peptide) [peptide DLADCSWHMGELVWCSRVEG] was run?
A: Its Kd is 50 nM.

Q: Which IC50 [10] does the source give for H-WEADCAWHLGELVWCTPMEF-NH2 (disulfide 5-15 (inferred), Synthetic peptide) [peptide WEADCAWHLGELVWCTPMEF] here?
A: The IC50 was 30 nM.

— patent publication US20040253247A1 (Genentech, published 2004)
